In patent US20250361317A1 (Janssen / Centocor, published 2025):

T1: human EMR2 (ADGRE2, CD312) on cells (human, UniProt Q9UHX3 24-823)
T1 construct: also called huEMR2 full length; Adhesion G protein-coupled receptor E2
T1 sequence: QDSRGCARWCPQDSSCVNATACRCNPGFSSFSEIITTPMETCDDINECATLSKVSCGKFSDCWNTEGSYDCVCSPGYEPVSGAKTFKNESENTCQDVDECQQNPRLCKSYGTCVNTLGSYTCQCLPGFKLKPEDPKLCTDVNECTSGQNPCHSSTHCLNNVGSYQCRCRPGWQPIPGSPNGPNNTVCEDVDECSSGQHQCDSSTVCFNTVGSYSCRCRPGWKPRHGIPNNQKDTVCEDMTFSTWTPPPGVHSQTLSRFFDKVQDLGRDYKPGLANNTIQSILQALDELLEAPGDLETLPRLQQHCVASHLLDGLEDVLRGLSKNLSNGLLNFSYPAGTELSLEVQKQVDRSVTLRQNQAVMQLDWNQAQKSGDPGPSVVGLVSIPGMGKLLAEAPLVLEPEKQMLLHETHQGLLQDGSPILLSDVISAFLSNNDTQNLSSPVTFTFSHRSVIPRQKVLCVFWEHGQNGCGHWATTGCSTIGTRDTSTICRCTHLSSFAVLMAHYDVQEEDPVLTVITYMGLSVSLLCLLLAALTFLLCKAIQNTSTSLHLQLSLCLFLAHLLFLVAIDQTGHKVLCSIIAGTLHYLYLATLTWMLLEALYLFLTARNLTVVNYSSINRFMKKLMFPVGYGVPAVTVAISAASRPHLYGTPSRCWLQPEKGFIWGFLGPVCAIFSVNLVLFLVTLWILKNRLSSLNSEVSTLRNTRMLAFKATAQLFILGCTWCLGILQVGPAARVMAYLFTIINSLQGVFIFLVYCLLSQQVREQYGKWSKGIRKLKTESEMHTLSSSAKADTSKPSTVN

T2: EMR2W4, huEMR2 GAIN domain + GPS, D261-T540, with C-terminal Avi/6x His tag (human)
T2 construct: also called Human EMR2 GAIN domain protein
T2 chain: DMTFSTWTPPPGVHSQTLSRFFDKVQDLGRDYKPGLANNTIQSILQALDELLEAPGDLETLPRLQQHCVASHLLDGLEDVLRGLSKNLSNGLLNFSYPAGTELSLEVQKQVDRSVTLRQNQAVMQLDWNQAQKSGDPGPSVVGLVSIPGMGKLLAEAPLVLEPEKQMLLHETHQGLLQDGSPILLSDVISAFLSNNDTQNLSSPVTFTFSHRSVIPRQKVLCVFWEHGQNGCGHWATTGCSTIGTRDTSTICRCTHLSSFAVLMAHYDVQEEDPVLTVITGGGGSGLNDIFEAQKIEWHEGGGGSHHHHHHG

B1: EMVBB6 (bispecific antibody, human IgG1, lambda, L234A L235A)
heavy chain 1 (Vb17 arm, B17B852-G34R-LH-spFv fused to Fc): DIQMTQSPSSLSASVGDRVTITCRSSQSLVHSNRNTYLHWYQQKPGCAPKLLIYKVSNRFSGVPSRFSGSGSGTDFTLTISSLQPEDFATYYCSQSTHVPFTFGQGTKLEIKGGGSGGSGGCPPCGGSGGQVQLQESGPGLVKPSETLSLTCTVSGYSITSGYFWNWIRQFPGKGLEWMGYISYDGSNNYNPSLKSRITISRDTSKNQFSLKLSSVTAADTAVYYCASPSPGTGYAVDYWGCGTTVTVSSEPKSSDKTHTCPPCPAPEAAGGPSVFLFPPKPKDTLMISRTPEVTCVVVSVSHEDPEVKFNWYVDGVEVHNAKTKPREEQYNSTYRVVSVLTVLHQDWLNGKEYKCKVSNKALPAPIEKTISKAKGQPREPQVYTLPPSREEMTKNQVSLWCLVKGFYPSDIAVEWESNGQPENNYKTTPPVLDSDGSFFLYSKLTVDKSRWQQGNVFSCSVMHEALHNHYTQKSLSLSPGK
heavy chain 2 (EMR2 arm, EMR2B361 Fab): EVQLVQSGGGLVKPGGSLRLSCVASGFIFRSYSMNWVRQAPGKGLEWVSSISSSSSYIYYADSVKGRFTISRDNAKNSLYLQMDSLRAEDTAVYYCARREYGGPFDYWGQGTLVTVSSASTKGPSVFPLAPSSKSTSGGTAALGCLVKDYFPEPVTVSWNSGALTSGVHTFPAVLQSSGLYSLSSVVTVPSSSLGTQTYICNVNHKPSNTKVDKKVEPKSCDKTHTCPPCPAPEAAGGPSVFLFPPKPKDTLMISRTPEVTCVVVSVSHEDPEVKFNWYVDGVEVHNAKTKPREEQYNSTYRVVSVLTVLHQDWLNGKEYKCKVSNKALPAPIEKTISKAKGQPREPQVYTLPPSREEMTKNQVSLSCAVKGFYPSDIAVEWESNGQPENNYKTTPPVLDSDGSFFLVSKLTVDKSRWQQGNVFSCSVMHEALHNRFTQKSLSLSPGK
light chain 2 (EMR2 arm, EMR2B361 Fab): QSVLTQPPSVFAAPGEKVTISCSGSSSNIGNDYVSWYQQLPGTAPKLLIYDNNKRPSGIPDRFSGSKSGTSATLGITGLQTGDEADYYCGTWDSSLSAGYVFGTGTKVTVLGQPKAAPSVTLFPPSSEELQANKATLVCLISDFYPGAVTVAWKADSSPVKAGVETTTPSKQSNNKYAASSYLSLTPEQWKSHRSYSCQVTHEGSTVEKTVAPTECS
notes: also called TPP000258023
B2: EMVBB7 (bispecific antibody, human IgG1, lambda, L234A L235A)
heavy chain 1 (Vb17 arm, B17B852-G34R-LH-spFv fused to Fc): B1 heavy chain 1 (Vb17 arm, B17B852-G34R-LH-spFv fused to Fc)
heavy chain 2 (EMR2 arm, EMR2B410 Fab): EVQLVESGGGLVQPGGSLRLSCAASGFTFSSYWMHWVRQVPGKGLVWVSRISSHGSSTSYADSVKGRFTISRDNAKNALYLQMNSLRAEDTAVYYCARGGNYYDSPYFDYWGQGTLVTVSSASTKGPSVFPLAPSSKSTSGGTAALGCLVKDYFPEPVTVSWNSGALTSGVHTFPAVLQSSGLYSLSSVVTVPSSSLGTQTYICNVNHKPSNTKVDKKVEPKSCDKTHTCPPCPAPEAAGGPSVFLFPPKPKDTLMISRTPEVTCVVVSVSHEDPEVKFNWYVDGVEVHNAKTKPREEQYNSTYRVVSVLTVLHQDWLNGKEYKCKVSNKALPAPIEKTISKAKGQPREPQVYTLPPSREEMTKNQVSLSCAVKGFYPSDIAVEWESNGQPENNYKTTPPVLDSDGSFFLVSKLTVDKSRWQQGNVFSCSVMHEALHNRFTQKSLSLSPGK
light chain 2 (EMR2 arm, EMR2B410 Fab): QSALTQPASVSGSPGQSITISCTGTSSDVGGYNYVSWYQQHPGKAPKLMIYEVSYRPSGISNRFSGSKSGDTASLTISGLQAEDEADYYCSSYTSSSTYVVFGGGTKVTVLGQPKAAPSVTLFPPSSEELQANKATLVCLISDFYPGAVTVAWKADSSPVKAGVETTTPSKQSNNKYAASSYLSLTPEQWKSHRSYSCQVTHEGSTVEKTVAPTECS
notes: also called TPP000258024
B3: EMVBB27 (bispecific antibody, human IgG1, kappa, L234A L235A)
heavy chain 1 (Vb17 arm, B17B21-LC-N33S Fab): QVQLQESGPGLVKPSETLSLTCTVSGYSITSGYFWNWIRQPPGKGLEWIGYISYDGSNNYNPSLKSRVTISRDTSKNQFSLKLSSVTAADTAVYYCASPSPGTGYAVDYWGQGTLVTVSSASTKGPSVFPLAPSSKSTSGGTAALGCLVKDYFPEPVTVSWNSGALTSGVHTFPAVLQSSGLYSLSSVVTVPSSSLGTQTYICNVNHKPSNTKVDKKVEPKSCDKTHTCPPCPAPEAAGGPSVFLFPPKPKDTLMISRTPEVTCVVVSVSHEDPEVKFNWYVDGVEVHNAKTKPREEQYNSTYRVVSVLTVLHQDWLNGKEYKCKVSNKALPAPIEKTISKAKGQPREPQVYTLPPSREEMTKNQVSLWCLVKGFYPSDIAVEWESNGQPENNYKTTPPVLDSDGSFFLYSKLTVDKSRWQQGNVFSCSVMHEALHNRFTQKSLSLSPGK
light chain 1 (Vb17 arm, B17B21-LC-N33S Fab): DIQMTQSPSSLSASVGDRVTITCRSSQSLVHSSGNTYLHWYQQKPGKAPKFLIYKVSNRFSGVPSRFSGSGSGTDFTLTISSLQPEDFATYYCSQSTHVPFTFGQGTKLEIKRTVAAPSVFIFPPSDEQLKSGTASVVCLLNNFYPREAKVQWKVDNALQSGNSQESVTEQDSKDSTYSLSSTLTLSKADYEKHKVYACEVTHQGLSSPVTKSFNRGEC
heavy chain 2 (EMR2 arm, EMR2B57-LH-spFv fused to Fc): QSALTQPASVSGSPGQSITISCTGTSSDVGGYNYVSWYQQHPGCAPKLMIYEVSYRPSGVSNRFSGSKSGNTASLTISGLQAEDEADYYCSSYTSSSTYVVFGGGTKLTVLGGGSGGSGGCPPCGGSGGEVQLVESGGGLVQPGGSLRLSCAASGFTFRSYWMHWVRQAPGKGLVWVSRISSGGSTTNYADSVKGRFTISRDNAKNTLYLQMNSLRAEDTAIYYCARGDNYYDSPYFDYWGCGTLVTVSSEPKSSDKTHTCPPCPAPEAAGGPSVFLFPPKPKDTLMISRTPEVTCVVVSVSHEDPEVKFNWYVDGVEVHNAKTKPREEQYNSTYRVVSVLTVLHQDWLNGKEYKCKVSNKALPAPIEKTISKAKGQPREPQVYTLPPSREEMTKNQVSLSCAVKGFYPSDIAVEWESNGQPENNYKTTPPVLDSDGSFFLVSKLTVDKSRWQQGNVFSCSVMHEALHNHYTQKSLSLSPGK
notes: also called EMVBB27.003; TPP000263194

Columns and labels:
[1] = target: T3, T-cell receptor with TRBV19 (Vβ17) beta chain on human T cells (human); test: flow cytometry, % TRBV19+ T cells of live human pan-T cells, 1 hour at 37 C
T3 construct: whole, on cells; also called Vb17; TRBV19+ T cells

[2] = target: T1, human EMR2 (ADGRE2, CD312) on cells; test: flow cytometry, median AF647 of live cells, OCI-AML5 WT cells, 1 hour at 37 C
[3] = target: T1, human EMR2 (ADGRE2, CD312) on cells; test: flow cytometry, median AF647 of live cells, MOLM 13 cells, 1 hour at 37 C
[4] = target: T2, EMR2W4, huEMR2 GAIN domain + GPS, …; test: SPR, row 'SPR (KD) / EMR2' of the Forced Degradation table; stress condition of the KD and EMR2 construct not named on the sheet

T3 sequence (A0A075B6N1 22-114): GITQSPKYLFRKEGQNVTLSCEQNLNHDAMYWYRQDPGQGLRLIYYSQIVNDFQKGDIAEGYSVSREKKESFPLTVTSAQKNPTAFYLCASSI

Row | Binder | EC50 [1] [nM] | Max % TRV19+ [1] [%] | EC50 [2] [nM] | Max (MFI) [2] [MFI] | EC50 [3] [nM] | Max (MFI) [3] [MFI] | Kd [4] [nM]
1 | B1 | 14.5 | 9.15 | 15.2 | 250000 | 12.6 | 330000 | 0.186
2 | B2 |  |  |  |  |  |  | 1.47
3 | B3 | 8.03 | 6.62 | 296 | 250000 | 301 | 420000 | 
